B1: BA-087-08-32 (antibody, V domains shown)
VH: EVQLVQSGAEVKKPGATVKISCKVSGFTFSHYTMHWIRQSPSRGLEWLGFISYDGNYKYYADSVKGRFTISRDNAKNSLYLQMNSLRAEDTAVYYCARTGWLGPFDYWGQGTLVTVSS
VL: EIVMTQSPATLSVSPGERATLSCRASQSVGSSYLAWYQQKPGKAPKLLIYGAFSRATGVPSRFSGSGSGTDFTLTISSLQPEDFATYYCQQDGSSPWTFGQGTKVEIK
notes: Detected with anti-human IgG and a molecular weight of 146 kDa was used in SPR, so it was tested as a whole IgG; also called BA-087-08-032; BA-087-08-32 (# 6978)
B2: BA-087-05-19 (antibody, V domains shown)
VH: EVQLVESGGGLVQPGGSLRLSCAASGFTFSHYTMHWVRQAPGKGLEWVSFISYDGNNKYYADSVKGRFTISRDNSKNTLYLQMNSLRAEDTAVYYCARTGWLGPFDYWGQGTLVTVSS
VL: AIQLTQSPSSLSASVGDRVTITCRASQYVGSSYLAWYLQKPGQSPQLLIYGAFSRATGIPARFSGSGSGTEFTLTISSLQSEDFAVYYCQQDGSSPWTFGQGTKVEIK
notes: Detected with anti-human IgG and a molecular weight of 146 kDa was used in SPR, so it was tested as a whole IgG; also called BA-087-05-019; BA-087-05-19 (# 6972)

What was measured:
[1] = target: T1, human CTLA4 expressed on the cell surface of CHO cells (human, UniProt P16410 36-223); assay: FACS, cells expressing human CTLA4, assay pH 6.0, MFI; lot 6978 in Tris buffer, T0; unit from the axis Log[ng/mL]
T1 construct: whole, on cells; also called CHO-huCTLA4; huCTLA4
T1 sequence (looked up): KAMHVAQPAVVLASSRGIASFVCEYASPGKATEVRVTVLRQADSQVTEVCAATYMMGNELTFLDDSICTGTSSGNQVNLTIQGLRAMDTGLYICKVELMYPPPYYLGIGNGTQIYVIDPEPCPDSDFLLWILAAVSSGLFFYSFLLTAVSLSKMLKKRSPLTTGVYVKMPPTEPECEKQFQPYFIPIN
Procedure: (§1) The amount of bound antibodies was quantified using anti-human IgG antibody conjugated to fluorophores. The MFI in each reaction was proportional to the amount of antibodies bound. The EC₅₀ value (in ng/mL) for binding to human CTLA4 on cells was determined by MFI of the singlets population against antibody concentration with a Prism variable slope of four-parameter dose-response curve, which was calculated using the nonlinear fit (variable slope, four parameters) model built into GraphPad Prism software (version 7.03).

[2] = target: T1, human CTLA4 expressed on the cell …; assay: FACS, cells expressing human CTLA4, assay pH 6.0, MFI; lot 6978 in Glu buffer, T2W; unit from the axis Log[ng/mL]
Procedure: as §1

[3] = target: T1, human CTLA4 expressed on the cell …; assay: FACS, cells expressing human CTLA4, assay pH 7.4, MFI; lot 6978 in Tris buffer, T2W; unit from the axis Log[ng/mL]
Procedure: as §1

[4] = target: T2, recombinant human CTLA4 extracellular domain (human, UniProt P16410 36-161); assay: ELISA, wells coated with human CTLA4, assay pH 6.0; lot 6978 without test buffer; same column repeated in FIG. 9E and FIG. 9F; unit from the axis Log[ng/mL]
T2 construct: extracellular domain; also called huCTLA-4
T2 sequence (looked up): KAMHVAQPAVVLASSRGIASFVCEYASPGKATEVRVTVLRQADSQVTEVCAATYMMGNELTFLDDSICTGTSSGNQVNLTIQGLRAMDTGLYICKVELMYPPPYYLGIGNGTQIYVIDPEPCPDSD
Procedure: (§2) Both ELISA and FACS analysis were used to measure the binding activity. […] The amount of bound antibodies was quantified using anti-human IgG antibody conjugated to HRP. The absorbance at 450 nm in each measurement was proportional to the amount of antibodies bound. […] EC50 value (in ng/mL) for binding to human CTLA4 was determined by absorbance at 450 nm against antibody concentration with Prism variable slope of four-parameter dose-response curve, which was calculated using the nonlinear fit (variable slope, four parameters) model built into GraphPad Prism software (version 7.03). The buffers tested included His buffer (His), Tris buffer (Tris), Glutamine buffer (Glu) and no buffer.

[5] = target: T1, human CTLA4 expressed on the cell …; assay: FACS, cells expressing human CTLA4, assay pH 6.0, MFI; lot 6978 control without test buffer; same column repeated in FIG. 10E and FIG. 10F; unit from the axis Log[ng/mL]
Procedure: as §1

[6] = target: T1, human CTLA4 expressed on the cell …; assay: FACS, CHO cells expressing human CTLA4 (CHO-huCTLA-4), pH 7.4, MFI; curve still rising at log 5, no plateau; no unit in the table, unit from the axis Log Antibodies [ng/ml]
Procedure: (§3) The amount of antibodies bound on the cells was quantified using anti-human IgG antibody conjugated to fluorophores. EC₅₀ values at pH 6.0 and 7.4 for binding to cells were calculated using the nonlinear fit (variable slope, four parameters) model built into GraphPad Prism software (version 7.03). The expression levels of human CTLA4 or cynomolgus CTLA4 on the surface of the CHO cells were determined using a BD QuantiBRITE™ PE kit.
(§4) At least two independent duplicate FACS experiments were performed for each antibody using each of the cell lines. The binding activities at different concentrations of the antibodies are plotted in these figures.

[7] = target: T2, recombinant human CTLA4 extracellular …; assay: ELISA, immobilised huCTLA-4, table head pH 7.0 (text: pH 7.4), Jun. 27, 2017
[8] = target: T2, recombinant human CTLA4 extracellular …; assay: ELISA, wells coated with human CTLA4, assay pH 6.0; lot 6972 in Glu buffer, T2W; unit from the axis Log[ng/mL]
Procedure: as §2

[9] = target: T2, recombinant human CTLA4 extracellular …; assay: ELISA, wells coated with human CTLA4, assay pH 7.4; lot 6972 in Tris buffer, T2W; unit from the axis Log[ng/mL]
Procedure: as §2

[10] = target: T1, human CTLA4 expressed on the cell …; assay: FACS, cells expressing human CTLA4, assay pH 6.0, MFI; lot 6972 in Glu buffer, T2W; unit from the axis Log[ng/mL]
Procedure: as §1

[11] = target: T1, human CTLA4 expressed on the cell …; assay: FACS, CHO cells expressing human CTLA4 (CHO-huCTLA-4), pH 7.4, MFI; no unit in the table, unit from the axis Log Antibodies [ng/ml]
Procedure: as §3, §4

[12] = target: T2, recombinant human CTLA4 extracellular …; assay: ELISA, wells coated with human CTLA4, assay pH 7.4; lot 6972 without test buffer; same column repeated in FIG. 9B and FIG. 9C; unit from the axis Log[ng/mL]
Procedure: as §2

[13] = target: T1, human CTLA4 expressed on the cell …; assay: FACS, cells expressing human CTLA4, assay pH 6.0, MFI; lot 6972 control without test buffer; same column repeated in FIG. 10B and FIG. 10C; unit from the axis Log[ng/mL]
Procedure: as §1

Binder	EC50 [1] [µg/mL]	EC50 [2] [µg/mL]	EC50 [3] [µg/mL]	EC50 [4] [µg/mL]	EC50 [5] [µg/mL]	EC50 [6] [µg/mL]	EC50 [7] [µg/mL]	EC50 [8] [µg/mL]	EC50 [9] [µg/mL]	EC50 [10] [µg/mL]	EC50 [11] [µg/mL]	EC50 [12] [µg/mL]	EC50 [13] [µg/mL]
B1	0.152	0.176	1.54	0.0222	0.158	41.1							
B2							0.0358	0.00266	0.0365	0.267	0.438	0.0546	0.223

Source: US20210403565A1 (BIOATLA, published 2021)
